Source: paper PMC12711026 (PLOS Pathogens, 2025)
Where no end group is shown, it is not given here. The star is where a group is joined. Biotin = O=C1N[C@H]2[C@H](CS[C@H]2CCCCC(=O)*)N1

Molecular target: T1, carrier-free recombinant human Netrin-1-His (human, UniProt O95631 25-604)
T1 construct: also called rNetrin-1-His; rNetrin-1
Assay: pull-down; Pierce Pull-Down Biotinylated Protein:Protein Interaction Kit; 150 μL of 0.5 mg/mL biotinylated peptide on streptavidin gel; 100 μL of 1 ng/μL recombinant LHBs with 0, 1, 2 or 4 ng/μL rNetrin-1-His; western blot
Details: both partners purified

B1: biotinylated LIPG-CTD HBS peptide (amino acids 331–340) (peptide)
peptide: Biotin-NSKMYLKTRA
notes: also called C-terminal HBS of LIPG
B1: binds.
